Test [1] addresses T1, SARS-CoV-2 spike protein (full length, wild type) (SARS-CoV-2, UniProt P0DTC2 14-1273). Nature of the test: cell-based or functional assay.
Test [2] concerns the target T1, SARS-CoV-2 spike protein (full length, …). The test can be described thus: cell-based or functional assay. This is another data set of the same source.
Test [3] addresses T2, SARS-CoV-2 spike receptor binding domain (RBD) (SARS-CoV-2, UniProt P0DTC2 319-541).
T2 construct: also called SARS-CoV RBD
Nature of the test: RBD/ACE2 competition; RBD binding to ACE2 on HEK-293 cells.

The target in test [4] is T2, SARS-CoV-2 spike receptor binding …. Described as above. The source holds these as a separate data set.
For test [5], the target named is SARS-CoV-2 spike protein (full length, wild type) (SARS-CoV-2, UniProt P0DTC2 14-1273). The test can be described thus: cell-based or functional assay. This is another data set of the same source.
Test [6] concerns the target SARS-CoV-2 spike receptor binding domain (RBD) (SARS-CoV-2, UniProt P0DTC2 319-541). The test can be described thus: RBD/ACE2 competition; RBD binding to ACE2 on HEK-293 cells.

B1: SARS2-1D5_f3 (antibody, V domains shown)
VH: QVQLVQSGAEVKKPGASVKVSCKASGYTFTSYDITWVRQATGQGLEWMGWMSPNSGNTGYAQKFQGRVTMTRNTSISTAYMELNSLRSEDTAVYYCARFGYGSGALDYYYYGLDVWGQGTTVTVSS
VL: EIVLTQSPGTLSLSPGDRATLSCRASQSVRSSHLAWYQQKPGQAPRLLIYGASSRATGIPDRFSGSGSGTDFSLTISRLEPEDFAVYYCQQFGSSPITFGQGTRLEIK
notes: also called antibody number 2
For the molecule B1, the “EC50 (pM)” value in test [1] was found to be 49 pM. Moreover, the “Inhibition: EC50 [pM]” value in test [2] was determined as 94 pM. Besides, in test [3], the “ACE2 Inhibition (%)” value was 94%. The “ACE2 binding [% inhibition]” value in test [4] amounted to 94%.

B2: 8A1 (antibody, V domains shown)
VH: EVQLQESGGGLVQPGGSLKLSCAASGFTFSSYTMSWVRQTPEKRLEWVAYISNGGGSISYPDTVKGRFTISRDNAKNTLYLHMSSLKSEDTAMYHCAREGLRPGDRDRYYAMDYWGQGTSVTVSS
VL: DIVITQSPALMAAFPGDRVTITCSVSSSVSSSNLHWYRQKSETSPKPWIYGTSTLASGVPVRFSGSGSGTSYSLTISSMEAEDAATYYCQQWSSYPLTFGAGTKLELKR
For the molecule B2, the “EC50 (pM)” value in test [5] is 96 pM. The “ACE2 Inhibition (%)” value in test [6] was 95%.

Values taken from patent US20230391856A1 (ICAHN SCHOOL OF MEDICINE AT MOUNT SINAI, published 2023).
